Laboratory results from publication PMC11548754, “DRN facilitates WUS transcriptional regulatory activity by chromatin remodeling to regulate shoot stem cell homeostasis in Arabidopsis”.

Key:
GST-WUS (WUSCHEL) = target: T1, GST-WUS (WUSCHEL) (Arabidopsis thaliana, UniProt Q9SB92 1-292); test: EMSA; EMSA kit (Thermo 20148), biotin-labeled probe; buffer, salt, pH and temperature not stated; details: protein: recombinant; tags: N-terminal GST (pGEX6p-1); chain copies: 2; label: biotin; blunt
T1 sequence: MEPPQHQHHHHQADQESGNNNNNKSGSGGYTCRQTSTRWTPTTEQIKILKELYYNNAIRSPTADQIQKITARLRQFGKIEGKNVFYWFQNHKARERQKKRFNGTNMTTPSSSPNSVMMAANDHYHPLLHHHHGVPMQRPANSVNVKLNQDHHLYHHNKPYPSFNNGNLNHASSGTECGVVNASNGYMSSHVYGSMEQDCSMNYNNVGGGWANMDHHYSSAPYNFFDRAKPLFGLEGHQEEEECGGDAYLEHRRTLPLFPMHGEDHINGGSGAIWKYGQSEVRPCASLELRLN

[1] = target: GST-WUS (WUSCHEL);8His-MBP-DRN (DORNROSCHEN) (Arabidopsis thaliana;Arabidopsis …, UniProt Q9SB92;Q9SAD4 1-292;1-328, |); test: EMSA; super-shift on adding DRN to WUS; EMSA kit (Thermo 20148), biotin-labeled probe; buffer, salt, pH and temperature not stated; details: protein: recombinant;recombinant; tags: N-terminal GST (pGEX6p-1);N-terminal 8His-MBP (modified pET28b); label: biotin; blunt
Sequence of GST-WUS (WUSCHEL);8His-MBP-DRN (DORNROSCHEN) (Q9SAD4 whole entry, one chain of several): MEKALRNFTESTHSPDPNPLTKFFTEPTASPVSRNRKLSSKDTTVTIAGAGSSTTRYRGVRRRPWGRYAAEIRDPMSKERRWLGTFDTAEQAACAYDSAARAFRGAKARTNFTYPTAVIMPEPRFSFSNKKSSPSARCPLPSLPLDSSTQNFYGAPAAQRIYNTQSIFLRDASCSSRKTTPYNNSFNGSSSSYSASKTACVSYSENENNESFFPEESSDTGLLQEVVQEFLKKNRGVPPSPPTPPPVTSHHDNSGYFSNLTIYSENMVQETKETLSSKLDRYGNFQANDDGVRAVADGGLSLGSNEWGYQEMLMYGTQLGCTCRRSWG

B1: CLV3 promoter probe (-1090 to -1064) (dsDNA)
DNA 1: GGCTCATATAATCCATTCAATTTATG
DNA 2: CATAAATTGAATGGATTATATGAGCC
binding result (GST-WUS (WUSCHEL)): binds
binding result [1]: binds
